Measured values published in patent US20240366663A1.

Molecular target: CD20 (UniProt P11836)
Experiment: cell-based or functional assay

Chain of UniProt P11836 (P11836 whole entry): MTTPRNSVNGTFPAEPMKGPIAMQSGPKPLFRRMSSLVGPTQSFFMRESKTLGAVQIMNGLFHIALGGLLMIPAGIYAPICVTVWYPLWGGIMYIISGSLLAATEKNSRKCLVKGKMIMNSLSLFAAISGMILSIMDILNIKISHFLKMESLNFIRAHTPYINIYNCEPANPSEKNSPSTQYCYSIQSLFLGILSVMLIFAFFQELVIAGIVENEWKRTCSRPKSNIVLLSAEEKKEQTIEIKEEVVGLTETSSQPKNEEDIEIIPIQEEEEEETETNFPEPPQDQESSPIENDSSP

Substance	EC:50 of percent specific lysis of ARH-77 cells, 4 h caspase assay, AB-202 + 0.01 µg/mL Obinutuzumab	EC:50 of percent specific lysis of ARH-77 cells, 4 h caspase assay, AB-202 + 0.1 µg/mL Obinutuzumab	EC:50 of percent specific lysis of ARH-77 cells, 4 h caspase assay, AB-202 + 1 µg/mL Obinutuzumab	EC:50 of percent specific lysis of ARH-77 cells, 4 h caspase assay, CBNK + 0.01 µg/mL Obinutuzumab	EC:50 of percent specific lysis of ARH-77 cells, 4 h caspase assay, CBNK + 0.1 µg/mL Obinutuzumab	EC:50 of percent specific lysis of ARH-77 cells, 4 h caspase assay, CBNK + 1 µg/mL Obinutuzumab	fold increase of AB-202 killing activity on ARH-77 cells with 1 µg/mL Obinutuzumab versus no antibody [fold]	fold increase of CBNK killing activity on ARH-77 cells with 1 µg/mL Obinutuzumab versus no antibody [fold]	EC:50 of percent specific lysis of ARH-77 cells, 4 h caspase assay, AB-202 + 0.1 µg/mL Rituximab	EC:50 of percent specific lysis of ARH-77 cells, 4 h caspase assay, AB-202 + 1 µg/mL Rituximab	EC:50 of percent specific lysis of ARH-77 cells, 4 h caspase assay, CBNK + 0.01 µg/mL Rituximab	EC:50 of percent specific lysis of ARH-77 cells, 4 h caspase assay, CBNK + 0.1 µg/mL Rituximab	EC:50 of percent specific lysis of ARH-77 cells, 4 h caspase assay, CBNK + 1 µg/mL Rituximab
Obinutuzumab (antibody)	1.21	1.05	0.97	2.99	0.85	0.37	2.9	66.5					
Rituximab (antibody)									1.56	1.49	11	3.25	2.39
